Reference: US10947272B2, “BACE1 inhibitor peptides” (HOFFMANN-LA ROCHE INC., priority 2015, dated 2021)
Where two headings read alike, the source gives them in different places. Numbered stars: 1 amine (or outer) side, 2 acyl side, 3 side chain; on linkers, the order of the positions; unused ones are H or OH. Square brackets hold non-standard residues; d marks the D form. Ends that are not written are not given here. Peptide text beside a SMILES is read from it. MetSta(3S,4S) = CSCC[C@H](N[*:1])[C@@H](O)CC(=O)[*:2]; Sta = CC(C)C[C@H](N)[C@@H](O)CC(=O)O; PEG4 = NCCOCCOCCOCCOCCC(=O)O

Assays:
[1] = target: BACE1 (Asp2, β-secretase, Memapsin-2) in HEK293 cells stably expressing human APP695 (UniProt P56817); assay: cell-based or functional assay
[2] = target: T1, BACE1 (Homo sapiens, UniProt P56817); assay: Cellular Aβ-lowering assay (Aβ40 ELISA of culture supernatant); type: cell-based; conditions: HEK293 cells stably transfected with human APP wt (APP695), 18-20 hrs incubation, Aβ40 in supernatant
T1 construct: Human HEK293 cells which are stably transfected with a vector expressing a cDNA of the human APP wt gene (APP695); endogenous in cells; host or cells: HEK293 (human), stably transfected with human APP695 wt cDNA
Method: The compounds were investigated in accordance with the test given hereinafter. Cellular Aβ-Lowering Assay: Human HEK293 cells which are stably transfected with a vector expressing a cDNA of the human APP wt gene (APP695) were used to assess the potency of the compounds in a cellular assay. The cells were seeded in 96-well microtiter plates in cell culture medium (Iscove, plus 10% (v/v) fetal bovine serum, glutamine, penicillin/streptomycin) to about 80% confluence and the compounds were added at a 10× concentration in 1/10 volume of medium without FCS containing 8% DMSO (final concentration of DMSO was kept at 0.8% v/v). After 18-20 hrs incubation at 37° C. and 5% CO2 in a humidified incubator the culture supernatant was harvested for the determination of Aβ40 concentrations. 96 well ELISA plates (e.g., Nunc MaxiSorb) were coated with monoclonal antibody which specifically recognize the C-terminal end of Aβ40 (Brockhaus et al., NeuroReport 9, 1481-1486; 1998). After blocking of non-specific binding sites with e.g. 1% BSA and washing, the culture supernatants were added in suitable dilutions together with a horseradish peroxidase-coupled Aβ detection antibody (e.g., antibody 4G8, Senetek, Maryland Heights, Mo.) and incubated for 5 to 7 hrs. Subsequently the wells of the microtiter plate were washed extensively with Tris-buffered saline containing 0.05% Tween 20 and the assay was developed with tetramethylbenzidine/H2O2 in citric acid buffer. After stopping the reaction with one volume 1 N H2SO4 the reaction was measured in an ELISA reader at 450 nm wavelength. The concentrations of Aβ in the culture supernatants were calculated from a standard curve obtained with known amounts of pure Aβ peptide.

[3] = target: T2, BACE1 (Asp2, β-secretase, Memapsin-2) in HEK293 cells stably expressing human APP695 (UniProt P56817 46-501, limits assumed); assay: cell-based or functional assay
[4] = target: T2, BACE1 (Asp2, β-secretase, Memapsin-2) …; assay: cell-based or functional assay; remark: listed apart in the source
[5] = IC 50, dual-site BACE1 inhibitors

T1 sequence (P56817 46-501): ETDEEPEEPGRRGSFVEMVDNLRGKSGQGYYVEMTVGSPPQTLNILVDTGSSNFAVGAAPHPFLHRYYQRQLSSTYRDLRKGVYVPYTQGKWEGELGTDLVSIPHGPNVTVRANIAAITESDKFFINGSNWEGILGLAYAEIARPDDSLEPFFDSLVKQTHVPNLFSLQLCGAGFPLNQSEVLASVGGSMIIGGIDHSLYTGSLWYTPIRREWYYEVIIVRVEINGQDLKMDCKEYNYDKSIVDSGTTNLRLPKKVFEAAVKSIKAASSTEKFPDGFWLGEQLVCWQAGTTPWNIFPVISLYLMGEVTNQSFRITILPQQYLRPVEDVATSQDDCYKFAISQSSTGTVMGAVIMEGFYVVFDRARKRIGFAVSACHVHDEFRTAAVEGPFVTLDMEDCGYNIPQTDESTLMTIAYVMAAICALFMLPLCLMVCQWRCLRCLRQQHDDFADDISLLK
T2 sequence (P56817 46-501 limits assumed): as the sequence (P56817 46-501) above
Sequence of BACE1 (Asp2, β-secretase, Memapsin-2) in HEK293 cells stably expressing human APP695 (UniProt P56817) (P56817 46-501 limits assumed): as the sequence (P56817 46-501) above

Molecule | IC 50, cellular Aβ-lowering assay (Aβ40 in supernatant of HEK293 cells expressing human APP695) [3] | further results
H-YPY[dK]IPLG[dK]GEVN[Sta]VAE[dP]-NH2 |  | IC 50, cellular Aβ-lowering assay (Aβ40 in supernatant of HEK293 cells expressing human APP695) [1]: 34.8 µM
CC[C@H](C)[C@H](NC(=O)[C@@H](CCCCN)NC(=O)[C@H](Cc1ccc(O)cc1)NC(=O)[C@@H]1CCCN1C(=O)[C@@H](N)Cc1ccc(O)cc1)C(=O)N1CCC[C@H]1C(=O)N[C@@H](CC(C)C)C(=O)NCC(=O)N[C@H](CCCCN)C(=O)NCC(=O)N[C@@H](CCC(=O)O)C(=O)N[C@H](C(=O)N[C@@H](CC(N)=O)C(=O)N[C@@H](CC(C)C)[C@@H](O)CC(=O)N[C@H](C(=O)N[C@@H](C)C(=O)N[C@@H](CCC(=O)O)C(=O)N1CCC[C@@H]1C(N)=O)C(C)C)C(C)C [Example 33, H-Tyr-Pro-Tyr-DLys-Ile-Pro-Leu-Gly-DLys-Gly-Glu-Val-Asn-Sta-Val-Ala-Glu-DPro-NH2] (H-YPY[dK]IPLG[dK]GEVN[Sta]VAE[dP]-NH2) |  | IC50 [2, 5]: 34.8 µM
CC(C)C[C@H](NC(=O)[C@@H]1CCCN1C(=O)[C@@H](CCCCN)NC(=O)[C@H](Cc1ccccc1)NC(=O)[C@H](Cc1ccc(O)cc1)NC(=O)[C@@H]1CCCN1C(=O)[C@@H](N)Cc1ccc(O)cc1)C(=O)NCCOCCOCCOCCOCCC(=O)N[C@@H](CCC(=O)O)C(=O)N[C@H](C(=O)N[C@@H](CC(N)=O)C(=O)N[C@@H](CC(C)C)[C@@H](O)CC(=O)N[C@H](C(=O)N[C@@H](C)C(=O)N[C@@H](CCC(=O)O)C(=O)N1CCC[C@@H]1C(N)=O)C(C)C)C(C)C [Example 24, H-Tyr-Pro-Tyr-Phe-DLys-Pro-Leu-PEG(4)-Glu-Val-Asn-Sta-Val-Ala-Glu-DPro-NH2 × 2TFA] (H-YPYF[dK]PL[PEG4]EVN[Sta]VAE[dP]-NH2) |  | IC50 [2, 5]: > 40 µM
CC[C@H](C)[C@H](NC(=O)[C@H](Cc1ccccc1)NC(=O)[C@H](Cc1ccc(O)cc1)NC(=O)[C@@H]1CCCN1C(=O)[C@@H](N)Cc1ccc(O)cc1)C(=O)N1CCC[C@H]1C(=O)N[C@H](CCCCN)C(=O)NCC(=O)N[C@H](CCCCN)C(=O)NCC(=O)N[C@@H](CCC(=O)O)C(=O)N[C@H](C(=O)N[C@@H](CC(N)=O)C(=O)N[C@@H](CCSC)[C@@H](O)CC(=O)N[C@H](C(=O)N[C@@H](C)C(=O)N[C@@H](CCC(=O)O)C(=O)N1CCC[C@H]1C(N)=O)C(C)C)C(C)C [Example 18, Tyr-Pro-Tyr-Phe-Ile-Pro-DLys-Gly-DLys-Gly-Glu-Val-Asn-MetSta-Val-Ala-Glu-Pro-NH2 × 3TFA] |  | IC50 ([2]; dual-site BACE1 inhibitors, read-out: IC 50): 0.015 µM
Ac-QQYPYFKPAN-NH2 [Ac-Gln-Gln-Tyr-Pro-Tyr-Phe-Lys-Pro-Ala-Asn-NH2] | > 40 µM | 
Ac-GDYPKFIPAS-NH2 [Ac-Gly-Asp-Tyr-Pro-Lys-Phe-Ile-Pro-Ala-Ser-NH2] | > 40 µM | 
EVN[Sta]VAEF-NH2 (also: TFA salt) [Glu-Val-Asn-Sta-Val-Ala-Glu-Phe-NH2 × TFA] |  | IC 50, cellular Aβ-lowering assay (Aβ40 in supernatant of HEK293 cells expressing human APP695) [4]: > 40 µM
Ac-LTTYPYFKPA-NH2 [Ac-Leu-Thr-Thr-Tyr-Pro-Tyr-Phe-Lys-Pro-Ala-NH2] | 14.4 µM | 
EVN[MetSta(3S,4S)]VAE[dF]-NH2 (also: TFA salt) [Glu-Val-Asn-MetSta-Val-Ala-Glu-DPhe-NH2 × TFA] |  | IC 50, cellular Aβ-lowering assay (Aβ40 in supernatant of HEK293 cells expressing human APP695) [4]: > 40 µM
Ac-STGARFIPAN-NH2 [Ac-Ser-Thr-Gly-Ala-Arg-Phe-Ile-Pro-Ala-Asn-NH2] | > 40 µM | 
Ac-GSYPKFIDAN-NH2 [Ac-Gly-Ser-Tyr-Pro-Lys-Phe-Ile-Asp-Ala-Asn-NH2] | > 40 µM | 
EVN[Sta]VAE[dP]-NH2 (also: TFA salt) [Glu-Val-Asn-Sta-Val-Ala-Glu-DPro-NH2 × TFA] |  | IC 50, cellular Aβ-lowering assay (Aβ40 in supernatant of HEK293 cells expressing human APP695) [4]: > 40 µM
Ac-YPTFKPANGS-NH2 (not fully specified; printed as Ac-YPTFKPANGS-NH2) [Ac-YPTFKPANGS-NH2] | > 40 µM | 
Ac-GDYPKFISAN-NH2 [Ac-Gly-Asp-Tyr-Pro-Lys-Phe-Ile-Ser-Ala-Asn-NH2] | > 40 µM | 
